Measurements: patent US20080025989A1 (Seagen, published 2008)

Legend:
human CD70 [1] = target: T1, human CD70 (human, UniProt P32970 1-193); assay: cell-based or functional assay
T1 sequence (looked up): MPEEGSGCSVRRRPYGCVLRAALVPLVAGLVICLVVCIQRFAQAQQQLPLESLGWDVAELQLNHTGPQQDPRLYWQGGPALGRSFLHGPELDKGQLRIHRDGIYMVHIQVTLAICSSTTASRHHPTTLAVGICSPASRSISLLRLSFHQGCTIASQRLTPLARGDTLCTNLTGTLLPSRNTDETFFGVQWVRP

human CD70 [2] = target: T1, human CD70; assay: cell-based or functional assay; remark: listed apart in the source
human CD70 [3] = target: T1, human CD70; assay: cell-based or functional assay; remark: listed apart in the source
human CD70 [4] = target: T1, human CD70; assay: cell-based or functional assay; remark: listed apart in the source
human CD70 [5] = target: T1, human CD70; assay: flow cytometry on allo-activated T cells after 5 days of MLR
Source text: In the second system, an MLR was set up between PBMC and an irradiated allogeneic stimulator CESS. Allogeneic activation of peripheral blood T cells was achieved by conventional mixed lymphoycte reactions (MLR). MLR were initiated by mixing PBMCs and irradiated allogeneic Epstein-Barr virus (EBV)-transformed B lymphoblastoid CESS cells (ATCC, Manassas, Va.) at a ratio of one T cell to ten irradiated CESS cells. T cell density was adjusted to 0.25×10⁶ T cells/ml of RPMI-1640 supplemented with 10% FBS and 2 mM L-glutamine. Rapid proliferation and expansion of alloreactive T cells was observed after approximately 96 hours of culture. After 5 days of stimulation, cells were assessed for CD70 expression using the anti-CD70 mAb 1F6 by flow cytometry. […] In parallel cultures in 96-well plates, graded doses of either 1F6-vcMMAE or 1F6-vcAFP were included in the cultures at initiation. DNA synthesis was assayed during the last 16 hours of the 5-day culture by a pulse of ³H-TdR.

human CD70 [6] = target: T1, human CD70; assay: immunohistochemistry on frozen RCC tumor sections, 2 µg/ml
Experimental: Immunohistochemistry was used to determine if over-expression of CD70 transcript in RCC was paralleled by CD70 protein expression. Frozen RCC tissue sections and normal adjacent tissue sections from two patients independent of those used in CD70 transcript analysis (FIGS. 6 and 7) were fixed in acetone at −20° C. for 10 minutes. After rehydration in PBS, sections were blocked with PBS containing 5% normal goat serum and Avidin D for 30 minutes at room temperature, and washed in PBS. Sections were incubated with the anti-CD70 mAb 2F2 or non-binding IgG at 2 μg/ml in PBS containing 5% normal goat serum with biotin for 60 minutes at room temperature. After washes with PBS, biotinylated anti-mouse IgG (VECTASTAIN ABC Kit, Vector Laboratories, Burlingame, Calif.) at a 1:250 dilution in PBS containing 5% normal goat serum was used to detect bound primary antibody by incubating for 30 minutes at room temperature. Excess biotinylated anti-mouse IgG was removed by PBS washes. Sections were quenched with 1% H₂O₂ in PBS for 30 minutes at room temperature, washed, and then incubated with the VECTASTAIN ABC complex made up according to the manufacturer's instructions. After PBS washes, sections were incubated for 30 minutes at room temperature with the DAB solution (VECTASTAIN ABC Kit) made up according to the manufacturer's instructions for color development. […]

B1: 1F6-vcAFP (antibody, V domains shown)
VH: QIQLVQSGPEVKKPGETVKISCKASGYTFTNYGMNWVKQAPGKGLKWMGWINTYTGEPTYADAFKGRFAFSLETSASTAYLQINNLKNEDTATYFCARDYGDYGMDYWGQGTSVTVSS
VL: DIVLTQSPASLAVSLGQRATISCRASKSVSTSGYSFMHWYQQKPGQPPKLLIYLASNLESGVPARFSGSGSGTDFTLNIHPVEEEDAATYYCQHSREVPWTFGGGTKLEIKR
modifications: maleimidocaproyl-val-cit-AFP on cysteine thiols of the DTT-reduced antibody (positions not stated)
IC50, cytotoxicity (alamarBlue) on CD70+ RCC lines (human CD70 [1]): < 0.02 µg/mL
IC50, proliferation of activated CD70-expressing T cell clones C2A, 40D8 and 4.01.1 (human CD70 [1]): < 0.05 µg/mL

B2: chimeric 1F6(c1F6)-vcMMAF4 (antibody, V domains shown)
VH: B1 VH
VL: B1 VL
modifications: val-cit-MMAF drug-linker, average of four per antibody (positions not stated)
IC50 (ng/mL), cytotoxicity on Hs445 cells (human CD70 [2]): 7.3 ng/mL
IC50 (ng/mL), cytotoxicity on KMH2 cells (human CD70 [2]): 0.41 ng/mL
IC50 (ng/mL), cytotoxicity on L428 cells (human CD70 [2]): 1.4 ng/mL
IC50 (ng/mL), cytotoxicity on RPMI-6666 cells (human CD70 [2]): 42 ng/mL
IC50 (ng/mL), cytotoxicity on SUP-HD-1 cells (human CD70 [2]): 6.3 ng/mL
IC50 (ng/mL), cytotoxicity on AMO-1 cells (human CD70 [3]): 16 ng/mL
IC50 (ng/mL), cytotoxicity on JJN-3 cells (human CD70 [3]): 46 ng/mL
IC50 (ng/mL), cytotoxicity on L363 cells (human CD70 [3]): 78 ng/mL
IC50 (ng/mL), cytotoxicity on LB cells (human CD70 [3]): 80 ng/mL
IC50 (ng/mL), cytotoxicity on LP-1 cells (human CD70 [3]): 160 ng/mL
IC50 (ng/mL), cytotoxicity on MM.1R cells (human CD70 [3]): 13 ng/mL
IC50 (ng/mL), cytotoxicity on MM.1S cells (human CD70 [3]): 20 ng/mL
IC50 (ng/mL), cytotoxicity on MOLP-8 cells (human CD70 [3]): 73 ng/mL
IC50 (ng/mL), cytotoxicity on U266 cells (human CD70 [3]): 1.2 ng/mL
IC50 (ng/mL), cytotoxicity on DBTRG-05MG cells (human CD70 [4]): 2.3 ng/mL
IC50 (ng/mL), cytotoxicity on GMS-10 cells (human CD70 [4]): 27 ng/mL
IC50 (ng/mL), cytotoxicity on SNB-19 cells (human CD70 [4]): 12 ng/mL
IC50 (ng/mL), cytotoxicity on U251 cells (human CD70 [4]): 5.3 ng/mL
IC50 (ng/mL), cytotoxicity on U373MG cells (human CD70 [4]): 16 ng/mL

B3: anti-human CD70 monoclonal antibody 1F6 (antibody, mouse IgG1, V domains shown)
VH: B1 VH
VL: B1 VL
notes: Murine hybridoma mAb from the Netherlands Red Cross Blood Transfusion Service; they were cloned with mouse IgG1 and kappa gene-specific primers; Used AlexaFluor488-conjugated for flow cytometry where necessary; also called mAb 1F6; AF-conjugated 1F6
binding result (human CD70 [5]): binds

B4: chimeric 1F6 (c1F6)-mcMMAF4 (antibody, V domains shown)
VH: B1 VH
VL: B1 VL
modifications: maleimidocaproyl-MMAF drug-linker, average of four per antibody (positions not stated)
IC50 (ng/mL), cytotoxicity on Hs445 cells (human CD70 [2]): 310 ng/mL
IC50 (ng/mL), cytotoxicity on KMH2 cells (human CD70 [2]): 5.2 ng/mL
IC50 (ng/mL), cytotoxicity on L428 cells (human CD70 [2]): 35 ng/mL
IC50 (ng/mL), cytotoxicity on RPMI-6666 cells (human CD70 [2]): 230 ng/mL
IC50 (ng/mL), cytotoxicity on SUP-HD-1 cells (human CD70 [2]): 53 ng/mL
IC50 (ng/mL), cytotoxicity on AMO-1 cells (human CD70 [3]): 38 ng/mL
IC50 (ng/mL), cytotoxicity on JJN-3 cells (human CD70 [3]): 61 ng/mL
IC50 (ng/mL), cytotoxicity on L363 cells (human CD70 [3]): 210 ng/mL
IC50 (ng/mL), cytotoxicity on LB cells (human CD70 [3]): 500 ng/mL
IC50 (ng/mL), cytotoxicity on LP-1 cells (human CD70 [3]): 155 ng/mL
IC50 (ng/mL), cytotoxicity on MM.1R cells (human CD70 [3]): 20 ng/mL
IC50 (ng/mL), cytotoxicity on MM.1S cells (human CD70 [3]): 22 ng/mL
IC50 (ng/mL), cytotoxicity on MOLP-8 cells (human CD70 [3]): 33 ng/mL
IC50 (ng/mL), cytotoxicity on U266 cells (human CD70 [3]): 1.7 ng/mL
IC50 (ng/mL), cytotoxicity on DBTRG-05MG cells (human CD70 [4]): 20 ng/mL
IC50 (ng/mL), cytotoxicity on GMS-10 cells (human CD70 [4]): 110 ng/mL
IC50 (ng/mL), cytotoxicity on SNB-19 cells (human CD70 [4]): 27 ng/mL
IC50 (ng/mL), cytotoxicity on U251 cells (human CD70 [4]): 15 ng/mL
IC50 (ng/mL), cytotoxicity on U373MG cells (human CD70 [4]): 35 ng/mL

B5: 1F6-vcMMAF (antibody, V domains shown)
VH: B1 VH
VL: B1 VL
modifications: MC-Val-Cit-PAB-MMAF on cysteine thiols of the DTT-reduced antibody (positions not stated)
IC50, cytotoxicity (alamarBlue) on CD70+ RCC lines (human CD70 [1]): < 0.03 µg/mL
IC50, proliferation inhibition of all CD70+ RCC lines tested (human CD70 [1]): < 0.03 µg/mL

B6: 1F6-vcMMAE (antibody, V domains shown)
VH: B1 VH
VL: B1 VL
modifications: maleimidocaproyl-val-cit-PAB-MMAE on cysteine thiols of the DTT-reduced antibody (positions not stated)
IC50, proliferation of Caki-1 cells (human CD70 [1]): < 0.02 µg/mL
IC50, proliferation of Caki-2 cells (human CD70 [1]): < 0.02 µg/mL

B7: anti-human CD70 monoclonal antibody 2F2 (antibody, mouse IgG1, V domains shown)
VH: QVQLQQSGTELMTPGASVTMSCKTSGYTFSTYWIEWVKQRPGHGLEWIGEILGPSGYTDYNEKFKAKATFTADTSSNTAYMQLSSLASEDSAVYYCARWDRLYAMDYWGGGTSVTVSS
VL: DIVLTQSPASLTVSLGQKTTISCRASKSVSTSGYSFMHWYQLKPGQSPKLLIYLASDLPSGVPARFSGSGSGTDFTLKIHPVEEEDAATYYCQHSREIPYTFGGGTKLEITR
notes: Murine hybridoma mAb; they were cloned with mouse IgG1 and kappa gene-specific primers; also called mAb 2F2
binding result (human CD70 [6]): binds
